Results reported in US11345725B2, “Bis-thioether stapled peptides as inhibitors of PRC2 function” (Research Foundation of the City University of New York, priority 2019, dated 2022).
Starred links: 1 amine or outer side, 2 acyl side, 3 side chain; linkers in the order of their positions; H or OH if unused. Positions of bridges follow the written chain, without caps; N, C: chain ends. Residues, ends and D or L forms follow the SMILES beside them. Octanediyl(1,8) = C(CCCC[*:2])CCC[*:1]; X5 = C(CCC[*:1])CCC[*:2]; X6 = C(=C\C[*:2])/C[*:1]; X4 = C(CCC[*:2])CC[*:1]; X2 = C(CC[*:1])CC[*:2]; X3 = C(CC[*:2])C[*:1]; X1 = C(C[*:1])C[*:2]

Assay: circular dichroism
Details: deionized water; pH unbuffered; 20 °C; 25 uM

Compound | helicity
CC[C@H](C)[C@H](NC(=O)[C@@H]1CSCCCCSC[C@H](NC(=O)[C@@H](NC(=O)[C@@H](NC(C)=O)C(C)C)[C@@H](C)CC)C(=O)N[C@@H](CCC(=O)O)C(=O)N[C@@H](CCC(=O)O)C(=O)N[C@@H](Cc2ccc(O)cc2)C(=O)N1)C(=O)N[C@@H](Cc1c[nH]c2ccccc12)C(=O)N[C@@H](CCCCN)C(=O)N[C@@H](CCCCN)C(=O)N[C@@H](CC(N)=O)C(=O)N[C@H](C(=O)N1CCC[C@H]1C(=O)N[C@@H](Cc1ccccc1)C(=O)N[C@@H](CC(C)C)C(N)=O)[C@@H](C)O (Ac-VICEEYCIWKKNTPFL-NH2; linker 3-7 via X3) | 11.5%
CC[C@H](C)[C@@H]1NC(=O)[C@@H](NC(=O)[C@H](Cc2ccc(O)cc2)NC(=O)[C@H](CCC(=O)O)NC(=O)[C@H](CCC(=O)O)NC(=O)[C@H](CC(N)=O)NC(=O)[C@@H](NC(=O)[C@@H](NC(C)=O)C(C)C)[C@@H](C)CC)CSCCCCCSC[C@@H](C(=O)N[C@@H](CC(N)=O)C(=O)N[C@H](C(=O)N2CCC[C@H]2C(=O)N[C@@H](Cc2ccccc2)C(=O)N[C@@H](CC(C)C)C(N)=O)[C@@H](C)O)NC(=O)[C@H](CCCCN)NC(=O)[C@H](Cc2c[nH]c3ccccc23)NC1=O (Ac-VINEEYCIWKCNTPFL-NH2; linker 7-11 via X2) | 5.68%
CC[C@H](C)[C@H](NC(=O)[C@@H]1CSC/C=C/CSC[C@H](NC(=O)[C@@H](NC(=O)[C@@H](NC(C)=O)C(C)C)[C@@H](C)CC)C(=O)N[C@@H](CCC(=O)O)C(=O)N[C@@H](CCC(=O)O)C(=O)N[C@@H](Cc2ccc(O)cc2)C(=O)N1)C(=O)N[C@@H](Cc1c[nH]c2ccccc12)C(=O)N[C@@H](CCCCN)C(=O)N[C@@H](CCCCN)C(=O)N[C@@H](CC(N)=O)C(=O)N[C@H](C(=O)N1CCC[C@H]1C(=O)N[C@@H](Cc1ccccc1)C(=O)N[C@@H](CC(C)C)C(N)=O)[C@@H](C)O (Ac-VICEEYCIWKKNTPFL-NH2; linker 3-7 via X6) | 19%
CC[C@H](C)[C@@H]1NC(=O)[C@@H](NC(=O)[C@H](Cc2ccc(O)cc2)NC(=O)[C@H](CCC(=O)O)NC(=O)[C@H](CCC(=O)O)NC(=O)[C@H](CC(N)=O)NC(=O)[C@@H](NC(=O)[C@@H](NC(C)=O)C(C)C)[C@@H](C)CC)CSC/C=C/CSC[C@@H](C(=O)N[C@@H](CC(N)=O)C(=O)N[C@H](C(=O)N2CCC[C@H]2C(=O)N[C@@H](Cc2ccccc2)C(=O)N[C@@H](CC(C)C)C(N)=O)[C@@H](C)O)NC(=O)[C@H](CCCCN)NC(=O)[C@H](Cc2c[nH]c3ccccc23)NC1=O (Ac-VINEEYCIWKCNTPFL-NH2; linker 7-11 via X6) | 24.2%
CC[C@H](C)[C@@H]1NC(=O)[C@@H](NC(=O)[C@H](Cc2ccc(O)cc2)NC(=O)[C@H](CCC(=O)O)NC(=O)[C@H](CCC(=O)O)NC(=O)[C@H](CC(N)=O)NC(=O)[C@@H](NC(=O)[C@@H](NC(C)=O)C(C)C)[C@@H](C)CC)CSCCCCCCSC[C@@H](C(=O)N[C@@H](CC(N)=O)C(=O)N[C@H](C(=O)N2CCC[C@H]2C(=O)N[C@@H](Cc2ccccc2)C(=O)N[C@@H](CC(C)C)C(N)=O)[C@@H](C)O)NC(=O)[C@H](CCCCN)NC(=O)[C@H](Cc2c[nH]c3ccccc23)NC1=O (Ac-VINEEYCIWKCNTPFL-NH2; linker 7-11 via X4) | 19.4%
CC[C@H](C)[C@H](NC(=O)[C@@H]1CSCCCSC[C@H](NC(=O)[C@@H](NC(=O)[C@@H](NC(C)=O)C(C)C)[C@@H](C)CC)C(=O)N[C@@H](CCC(=O)O)C(=O)N[C@@H](CCC(=O)O)C(=O)N[C@@H](Cc2ccc(O)cc2)C(=O)N1)C(=O)N[C@@H](Cc1c[nH]c2ccccc12)C(=O)N[C@@H](CCCCN)C(=O)N[C@@H](CCCCN)C(=O)N[C@@H](CC(N)=O)C(=O)N[C@H](C(=O)N1CCC[C@H]1C(=O)N[C@@H](Cc1ccccc1)C(=O)N[C@@H](CC(C)C)C(N)=O)[C@@H](C)O (Ac-VICEEYCIWKKNTPFL-NH2; linker 3-7 via X1) | 12.7%
CC[C@H](C)[C@H](NC(=O)[C@H](CCCCN)NC(=O)[C@H](CC(=O)O)NC(=O)[C@@H](NC(=O)[C@@H](NC(C)=O)[C@@H](C)O)C(C)C)C(=O)N[C@@H](C)C(=O)N[C@@H](CO)C(=O)N[C@@H](C)C(=O)N[C@H]1CSCCCCCCSC[C@@H](C(=O)N2CCC[C@H]2C(=O)N[C@@H](CCC(N)=O)C(=O)N[C@@H](CC(N)=O)C(N)=O)NC(=O)[C@H](CCC(=O)O)NC(=O)[C@H](CCC(=O)O)NC(=O)[C@H](C)NC(=O)[C@H](CC(C)C)NC(=O)[C@H](C(C)C)NC(=O)[C@H](CO)NC1=O (Ac-TVDKIASACSVLAEECPQN-NH2; linker 9-16 via X4) | 8.7%
CC[C@H](C)[C@H](NC(=O)[C@H](CCCCN)NC(=O)[C@H](CC(=O)O)NC(=O)[C@@H](NC(=O)[C@@H](NC(C)=O)[C@@H](C)O)C(C)C)C(=O)N[C@@H](C)C(=O)N[C@@H](CO)C(=O)N[C@@H](C)C(=O)N[C@H]1CSCCCCCCCCSC[C@@H](C(=O)N2CCC[C@H]2C(=O)N[C@@H](CCC(N)=O)C(=O)N[C@@H](CC(N)=O)C(N)=O)NC(=O)[C@H](CCC(=O)O)NC(=O)[C@H](CCC(=O)O)NC(=O)[C@H](C)NC(=O)[C@H](CC(C)C)NC(=O)[C@H](C(C)C)NC(=O)[C@H](CO)NC1=O (Ac-TVDKIASACSVLAEECPQN-NH2; linker 9-16 via Octanediyl(1,8)) | 12.1%
CC[C@H](C)[C@H](NC(=O)[C@H](CC(C)C)NC(=O)[C@H](Cc1ccccc1)NC(=O)[C@H](CC(=O)O)NC(=O)[C@H](Cc1c[nH]cn1)NC(=O)[C@H](CCSC)NC(=O)[C@H](CO)NC(=O)[C@@H](NC(=O)[C@@H]1CSCCCCCSC[C@H](NC(=O)[C@H](CC(N)=O)NC(=O)[C@H](CCCNC(=N)N)NC(=O)[C@H](CS)NC(=O)[C@H](CC(C)C)NC(C)=O)C(=O)N[C@@H](CCSC)C(=O)N[C@@H](CC(C)C)C(=O)N[C@@H](Cc2c[nH]cn2)C(=O)N1)C(C)C)C(N)=O (Ac-LCRNCMLHCVSMHDFLI-NH2; linker 5-9 via X2) | 61.6%
CC[C@H](C)[C@H](NC(=O)[C@H](CCCCN)NC(=O)[C@H](CC(=O)O)NC(=O)[C@@H](NC(=O)[C@@H](NC(C)=O)[C@@H](C)O)C(C)C)C(=O)N[C@@H](C)C(=O)N[C@@H](CO)C(=O)N[C@@H](C)C(=O)N[C@H]1CSCCCCCCCSC[C@@H](C(=O)N2CCC[C@H]2C(=O)N[C@@H](CCC(N)=O)C(=O)N[C@@H](CC(N)=O)C(N)=O)NC(=O)[C@H](CCC(=O)O)NC(=O)[C@H](CCC(=O)O)NC(=O)[C@H](C)NC(=O)[C@H](CC(C)C)NC(=O)[C@H](C(C)C)NC(=O)[C@H](CO)NC1=O (Ac-TVDKIASACSVLAEECPQN-NH2; linker 9-16 via X5) | 13.7%
CC[C@H](C)[C@@H]1NC(=O)[C@@H](NC(=O)[C@H](CC(=O)O)NC(=O)[C@@H](NC(=O)[C@@H](NC(C)=O)[C@@H](C)O)C(C)C)CSCCCCCSC[C@@H](C(=O)N[C@@H](CC(C)C)C(=O)N[C@@H](CO)C(=O)N[C@H](C(=O)N[C@@H](CC(C)C)C(=O)N[C@@H](C)C(=O)N[C@@H](CCC(=O)O)C(=O)N[C@@H](CCC(=O)O)C(=O)N[C@H](C(=O)N2CCC[C@H]2C(=O)N[C@@H](CCC(N)=O)C(=O)N[C@@H](CC(N)=O)C(N)=O)C(C)C)C(C)C)NC(=O)[C@H](CO)NC(=O)[C@H](C)NC1=O (Ac-TVDCIASCLSVLAEEVPQN-NH2; linker 4-8 via X2) | 9%
CC[C@H](C)[C@@H]1NC(=O)[C@@H](NC(=O)[C@H](CC(=O)O)NC(=O)[C@@H](NC(=O)[C@@H](NC(C)=O)[C@@H](C)O)C(C)C)CSCCCSC[C@@H](C(=O)N[C@@H](CC(C)C)C(=O)N[C@@H](CO)C(=O)N[C@H](C(=O)N[C@@H](CC(C)C)C(=O)N[C@@H](C)C(=O)N[C@@H](CCC(=O)O)C(=O)N[C@@H](CCC(=O)O)C(=O)N[C@H](C(=O)N2CCC[C@H]2C(=O)N[C@@H](CCC(N)=O)C(=O)N[C@@H](CC(N)=O)C(N)=O)C(C)C)C(C)C)NC(=O)[C@H](CO)NC(=O)[C@H](C)NC1=O (Ac-TVDCIASCLSVLAEEVPQN-NH2; linker 4-8 via X1) | 23%
CC[C@H](C)[C@H](NC(=O)[C@H](CCC(N)=O)NC(=O)[C@@H](NC(=O)[C@@H]1CSCCCCCSC[C@H](NC(=O)[C@H](CC(C)C)NC(=O)[C@H](Cc2c[nH]c3ccccc23)NC(=O)[C@H](CCC(=O)O)NC(C)=O)C(=O)N[C@@H](CCC(=O)O)C(=O)N[C@@H](CCCCN)C(=O)N[C@@H]([C@@H](C)O)C(=O)N1)[C@@H](C)O)C(=O)N[C@@H](CCC(=O)O)C(=O)N[C@@H](CCC(=O)O)C(=O)N[C@@H](Cc1ccccc1)C(N)=O (Ac-EWLCEKTCTQIEEF-NH2; linker 4-8 via X2) | 19.7%
CC[C@H](C)[C@H](NC(=O)[C@@H]1CSCCCCCCSC[C@H](NC(=O)[C@@H](NC(=O)[C@@H](NC(C)=O)C(C)C)[C@@H](C)CC)C(=O)N[C@@H](CCC(=O)O)C(=O)N[C@@H](CCC(=O)O)C(=O)N[C@@H](Cc2ccc(O)cc2)C(=O)N1)C(=O)N[C@@H](Cc1c[nH]c2ccccc12)C(=O)N[C@@H](CCCCN)C(=O)N[C@@H](CCCCN)C(=O)N[C@@H](CC(N)=O)C(=O)N[C@H](C(=O)N1CCC[C@H]1C(=O)N[C@@H](Cc1ccccc1)C(=O)N[C@@H](CC(C)C)C(N)=O)[C@@H](C)O (Ac-VICEEYCIWKKNTPFL-NH2; linker 3-7 via X4) | 19.4%
Ac-EWLREKTITQIEEF-NH2 | 20.9%
Ac-LCRNFMLHLVSMHDFLI-NH2 | 59.9%
CC[C@H](C)[C@@H]1NC(=O)[C@@H](NC(=O)[C@H](Cc2ccc(O)cc2)NC(=O)[C@H](CCC(=O)O)NC(=O)[C@H](CCC(=O)O)NC(=O)[C@H](CC(N)=O)NC(=O)[C@@H](NC(=O)[C@@H](NC(C)=O)C(C)C)[C@@H](C)CC)CSCCCSC[C@@H](C(=O)N[C@@H](CC(N)=O)C(=O)N[C@H](C(=O)N2CCC[C@H]2C(=O)N[C@@H](Cc2ccccc2)C(=O)N[C@@H](CC(C)C)C(N)=O)[C@@H](C)O)NC(=O)[C@H](CCCCN)NC(=O)[C@H](Cc2c[nH]c3ccccc23)NC1=O (Ac-VINEEYCIWKCNTPFL-NH2; linker 7-11 via X1) | 18.4%
CC[C@H](C)[C@H](NC(=O)[C@H](CCC(N)=O)NC(=O)[C@@H](NC(=O)[C@@H]1CSCCCSC[C@H](NC(=O)[C@H](CC(C)C)NC(=O)[C@H](Cc2c[nH]c3ccccc23)NC(=O)[C@H](CCC(=O)O)NC(C)=O)C(=O)N[C@@H](CCC(=O)O)C(=O)N[C@@H](CCCCN)C(=O)N[C@@H]([C@@H](C)O)C(=O)N1)[C@@H](C)O)C(=O)N[C@@H](CCC(=O)O)C(=O)N[C@@H](CCC(=O)O)C(=O)N[C@@H](Cc1ccccc1)C(N)=O (Ac-EWLCEKTCTQIEEF-NH2; linker 4-8 via X1) | 38.4%
